Experimental data published in patent publication US20240052064A1 (Bristol-Myers Squibb, published 2024).

T1: Human BCMA, TPP208 (human, UniProt Q02223 1-54, limits assumed)
T1 construct: also called Antigen 1
T1 sequence (looked up): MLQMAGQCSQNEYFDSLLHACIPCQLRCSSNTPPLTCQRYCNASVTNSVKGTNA

T2: BCMA (human, UniProt Q02223 1-54, limits assumed)
T2 construct: also called B cell maturation antigen; TNFRSF17
T2 sequence (looked up): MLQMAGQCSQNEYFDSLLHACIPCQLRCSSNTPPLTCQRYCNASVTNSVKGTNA

T3: BCMA on cells (JEKO cells, plasmablasts) (human, UniProt Q02223 1-184)
T3 sequence (looked up): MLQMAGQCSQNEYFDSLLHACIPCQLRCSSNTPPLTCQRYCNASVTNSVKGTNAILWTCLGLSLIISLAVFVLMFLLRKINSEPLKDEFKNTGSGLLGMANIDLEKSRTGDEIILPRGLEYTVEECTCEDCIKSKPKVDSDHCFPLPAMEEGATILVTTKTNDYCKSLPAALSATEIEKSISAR


Assays:
[1] = molecular target: T1, Human BCMA, TPP208; experiment: SPR (Biacore T200), single-cycle kinetics, antibody captured on anti-human IgG, antigen injected; sensorgram of sample stored at pH 6, 40 C compared with the non-stressed standard
Description: (§1) SPR experiments were performed using a Biacore T200 system (GE Healthcare, Uppsala, Sweden) with analysis and sample compartment temperatures set at 25° C. and 7° C. respectively.
(§2) Anti-Human IgG (from anti-human IgG Capture Kit) was amine coupled to the surface of a CM5 chip according to the manufacturer's instructions. Molecule bispecific antibodies diluted to 1 μg/mL in running buffer were captured on the chip surface in a 60 s injection. Following the single-cycle kinetics procedure, antigen was next injected five times (30 s per injection) at incrementally increasing concentrations at a flow rate of 30 μL/min. Antigen concentrations ranged from 0.08 to 50 nM for BCMA and between 12.7 to 1000 nM for CD3. A 300 s dissociation time was added after the last antigen injection. Following each experiment, all flow cells were regenerated using a 30 s injection of 3M MgCl₂.
(§3) Prior to analysis, data were double referenced by first subtracting data from a reference flow cell and then subtracting a blank cycle where buffer was injected instead of antigen. The sensorgram comparison analysis was implemented using a Biacore T200 (software version 3.0). All data were normalized with respect to the response where 100% reflects the maximum binding obtained during injection and 0% reflects the baseline. Average and ±3 standard deviation (SD) sensorgrams were calculated from ten or more independent sensorgrams of each molecule's non-stressed material (standard). For quantitation of binding similarities of the stressed samples against the corresponding non-stressed standard, sample sensorgrams were co-evaluated with the sensorgrams of the standard. The degree of similarity was calculated based on how many sample data points fell inside or outside the ±3 standard deviation limits according to Equation 2, where SSQ is the sum of squares (Karlsson, R, Pol, E., and Frostell, A. (2016); Analytical Biochemistry 502, 53-63).

[2] = molecular target: T4, Human CD3ED, TPP401 (human, UniProt P07766 23-126; P04234 22-105); experiment: as above
T4 construct: 'CD3ED' is read here as the CD3 epsilon/delta pair; also called Antigen 2
T4 sequence (P07766 23-126, chain 1 of 2): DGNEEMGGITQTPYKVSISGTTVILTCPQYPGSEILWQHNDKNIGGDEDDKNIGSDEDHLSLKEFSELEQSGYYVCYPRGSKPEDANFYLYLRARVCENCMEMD
T4 sequence (P04234 22-105, chain 2 of 2): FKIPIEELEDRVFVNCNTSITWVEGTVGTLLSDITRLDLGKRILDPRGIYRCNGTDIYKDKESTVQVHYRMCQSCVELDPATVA
Description: as §1, §2, §3

[3] = molecular target: T1, Human BCMA, TPP208; experiment: SPR (Biacore T200), single-cycle kinetics, antibody captured on anti-human IgG, antigen injected; sensorgram of sample stored at pH 6 with tert-butyl peroxide, 40 C compared with the non-stressed standard
Description: as §1, §2, §3

[4] = molecular target: T4, Human CD3ED, TPP401; experiment: as above
Description: as §1, §2, §3

[5] = molecular target: T2, BCMA
[6] = molecular target: T3, BCMA on cells (JEKO cells, plasmablasts); experiment: cell-based or functional assay
[7] = molecular target: T1, Human BCMA, TPP208; experiment: SPR (Biacore T200), single-cycle kinetics, antibody captured on anti-human IgG, antigen injected; sensorgram of sample stored at pH 8, 40 C compared with the non-stressed standard
Description: as §1, §2, §3

[8] = molecular target: T4, Human CD3ED, TPP401; experiment: as above
Description: as §1, §2, §3

[9] = molecular target: T3, BCMA on cells (JEKO cells, plasmablasts); experiment: cell-based or functional assay; remark: listed apart in the source
[10] = molecular target: T3, BCMA on cells (JEKO cells, plasmablasts); experiment: cell-based or functional assay; remark: listed apart in the source
[11] = molecular target: T1, Human BCMA, TPP208; experiment: SPR (Biacore T200), single-cycle kinetics, antibody captured on anti-human IgG, antigen injected; sensorgram of sample stored at pH 4, 40 C compared with the non-stressed standard
Description: as §1, §2, §3

[12] = molecular target: T4, Human CD3ED, TPP401; experiment: as above
Description: as §1, §2, §3

[13] = molecular target: T3, BCMA on cells (JEKO cells, plasmablasts); experiment: cell-based or functional assay; remark: listed apart in the source
[14] = molecular target: T3, BCMA on cells (JEKO cells, plasmablasts); experiment: cell-based or functional assay; remark: listed apart in the source

Binder	pH 6 SPR % similarity-BCMA [1] [%]	pH 6 SPR % similarity-CD3 [2] [%]	pH 6-TBP SPR % similarity-BCMA [3] [%]	pH 6-TBP SPR % similarity-CD3 [4] [%]	Kd [5] [nM]	EC50 for BM plasmablast killing (nM), bone marrow mononuclear cells, 24 h [6] [nM]	pH 8 SPR % similarity-BCMA [7] [%]	pH 8 SPR % similarity-CD3 [8] [%]	EC50 for JEKO cell killing (nM), T cell-mediated, annexin V, 20 h, T:E 1:2 [9] [nM]	EC50 PB killing (nM), AAV-1 (n = 1) [10] [nM]	pH 4 SPR % similarity-BCMA [11] [%]	pH 4 SPR % similarity-CD3 [12] [%]	other results
Mab101 (bispecific antibody, human IgG1, L234A L235A, also called BCMA TCE; BCMA T cell engager) heavy 1: not shown heavy 2: not shown light 1: not shown light 2: EVQLLESGGGLVQPGGSLRLSCAASGFTFSTYAMNWVRQAPGKGLEWVSRIRSKYNNYATYYADSVKGRFTISRDDSKNTLYLQMNSLRAEDTAVYYCVRHGNFGNSYVSWFAYWGQGTLVTVSSASVAAPSVFIFPPSDEQLKSGTASVVCLLNNFYPREAKVQWKVDNALQSGNSQESVTEQDSKDSTYSLSSTLTLSKADYEKHKVYACEVTHQGLSSPVTKSFNRGEC	100	100	82.5	75.3	1.1	0.266	99.9	71.5	5.72	0.236	100	99.9	EC50 PB killing (nM), healthy volunteers (n = 2) [10]: 0.257 nM
22-TCBcv (bispecific antibody, human IgG1, kappa, L234A L235A) heavy 1: not shown heavy 2: EVQLLESGGGLVQPGGSLRLSCAASGFTFSDNAMGWVRQAPGKGLEWVSAISGPGSSTYYADSVKGRFTISRDNSKNTLYLQMNSLRAEDTAVYYCAKVLGWFDYWGQGTLVTVSSASTKGPSVFPLAPSSKSTSGGTAALGCLVEDYFPEPVTVSWNSGALTSGVHTFPAVLQSSGLYSLSSVVTVPSSSLGTQTYICNVNHKPSNTKVDEKVEPKSCDKTHTCPPCPAPEAAGGPSVFLFPPKPKDTLMISRTPEVTCVVVDVSHEDPEVKFNWYVDGVEVHNAKTKPREEQYNSTYRVVSVLTVLHQDWLNGKEYKCKVSNKALGAPIEKTISKAKGQPREPQVCTLPPSRDELTKNQVSLSCAVKGFYPSDIAVEWESNGQPENNYKTTPPVLDSDGSFFLVSKLTVDKSRWQQGNVFSCSVMHEALHNHYTQKSLSLSPGK light 1: EIVLTQSPGTLSLSPGERATLSCRASQSVSSYYLAWYQQKPGQAPRLLISGAGSRATGIPDRFSGSGSGTDFTLTISRLEPEDFAVYYCQQYGYPPDFTFGQGTKVEIKRTVAAPSVFIFPPSDRKLKSGTASVVCLLNNFYPREAKVQWKVDNALQSGNSQESVTEQDSKDSTYSLSSTLTLSKADYEKHKVYACEVTHQGLSSPVTKSFNRGEC light 2: EVQLLESGGGLVQPGGSLRLSCAASGFTFSTYAMNWVRQAPGKGLEWVSRIRSKYNNYATYYADSVKGRFTISRDDSKNTLYLQMNSLRAEDTAVYYCVRHGNFGNSYVSWFAYWGQGTLVTVSSASVAAPSVFIFPPSDEQLKSGTASVVCLLNNFYPREAKVQWKVDNALQSGNSQESVTEQDSKDSTYSLSSTLTLSKADYEKHKVYACEVTHQGLSSPVTKSFNRGEC	99.8	99.5	71.9	58.5	–	–	95.8	59.5	–	–	84.8	99.6	–
CC-93269 (bispecific antibody, human IgG1, kappa, L234A L235A, also called 42-TCBcv; BCMA TCE) heavy 1: not shown heavy 2: EVQLLESGGGLVQPGGSLRLSCAASGFTFSDNAMGWVRQAPGKGLEWVSAISGPGSSTYYADSVKGRFTISRDNSKNTLYLQMNSLRAEDTAVYYCAKVLGWFDYWGQGTLVTVSSASTKGPSVFPLAPSSKSTSGGTAALGCLVEDYFPEPVTVSWNSGALTSGVHTFPAVLQSSGLYSLSSVVTVPSSSLGTQTYICNVNHKPSNTKVDEKVEPKSCDKTHTCPPCPAPEAAGGPSVFLFPPKPKDTLMISRTPEVTCVVVDVSHEDPEVKFNWYVDGVEVHNAKTKPREEQYNSTYRVVSVLTVLHQDWLNGKEYKCKVSNKALGAPIEKTISKAKGQPREPQVCTLPPSRDELTKNQVSLSCAVKGFYPSDIAVEWESNGQPENNYKTTPPVLDSDGSFFLVSKLTVDKSRWQQGNVFSCSVMHEALHNHYTQKSLSLSPGK light 1: EIVLTQSPGTLSLSPGERATLSCRASQSVSDEYLSWYQQKPGQAPRLLIHSASTRATGIPDRFSGSGSGTDFTLAISRLEPEDFAVYYCQQYGYPPDFTFGQGTKVEIKRTVAAPSVFIFPPSDRKLKSGTASVVCLLNNFYPREAKVQWKVDNALQSGNSQESVTEQDSKDSTYSLSSTLTLSKADYEKHKVYACEVTHQGLSSPVTKSFNRGEC light 2: EVQLLESGGGLVQPGGSLRLSCAASGFTFSTYAMNWVRQAPGKGLEWVSRIRSKYNNYATYYADSVKGRFTISRDDSKNTLYLQMNSLRAEDTAVYYCVRHGNFGNSYVSWFAYWGQGTLVTVSSASVAAPSVFIFPPSDEQLKSGTASVVCLLNNFYPREAKVQWKVDNALQSGNSQESVTEQDSKDSTYSLSSTLTLSKADYEKHKVYACEVTHQGLSSPVTKSFNRGEC	–	–	–	–	0.14	0.0201	–	–	2.79	0.01	–	–	Plasmablast depletion EC50 (nM), PBMC from healthy volunteers, soluble BCMA 0 ng/ml [13]: 0.005 nM; Plasmablast depletion EC50 (nM), PBMC from healthy volunteers, soluble BCMA 16.8 ng/ml [13]: 0.025 nM; Plasmablast depletion EC50 (nM), PBMC from healthy volunteers, soluble BCMA 33.6 ng/ml [13]: 0.13 nM; Plasmablast depletion EC50 (nM), PBMC from healthy volunteers, soluble BCMA 67.6 ng/ml [13]: 0.32 nM; EC50 PB killing (nM), healthy volunteers (n = 6) [10]: 0.029 nM; EC50 for plasmablast killing in AAV, PBMC, 24 h [14]: 0.007 nM; EC50 for plasmablast killing in RA, PBMC, 24 h [14]: 0.001 nM; EC50 for plasmablast killing in SLE (n=5), PBMC, 24 h [14]: 0.01 nM; EC50 for plasmablast killing in healthy volunteers (n=12), PBMC, 24 h [14]: 0.005 nM
83A10-TCBcv (bispecific antibody, human IgG1, kappa, L234A L235A) heavy 1: not shown heavy 2: not shown light 1: not shown light 2: EVQLLESGGGLVQPGGSLRLSCAASGFTFSTYAMNWVRQAPGKGLEWVSRIRSKYNNYATYYADSVKGRFTISRDDSKNTLYLQMNSLRAEDTAVYYCVRHGNFGNSYVSWFAYWGQGTLVTVSSASVAAPSVFIFPPSDEQLKSGTASVVCLLNNFYPREAKVQWKVDNALQSGNSQESVTEQDSKDSTYSLSSTLTLSKADYEKHKVYACEVTHQGLSSPVTKSFNRGEC	100	99.9	72	59.7	–	–	90.8	57.5	–	–	99.4	100	–
